Legend:
[1] = target: VEGFR1 (isolated recombinant receptor) (UniProt P17948 27-756, limits assumed); experiment: modified ELISA; CD44-3MUT coated on wells, recombinant VEGFR1 added, detected with anti-VEGFR antibody
Procedure: (§1) Modified ELISA tests to evaluate the binding of VEGFR2 (panel A) and VEGFR1 (panel B) to immobilized CD44-3MUT. […] Nonspecific binding was blocked with 2.5% non-fat dry milk solution. VEGFR1 and VEGFR2 were added into the coated wells and incubated for 1 h at RT. VEGFR binding was detected with anti-VEGFR antibodies
(§2) We have developed a modified ELISA test (to detect CD44-3MUT binding specificity to isolated recombinant receptors VEGFR1 and VEGFR2).

[2] = target: VEGFR2 (isolated recombinant receptor) (UniProt P35968 20-764, limits assumed); experiment: modified ELISA; CD44-3MUT coated on wells, recombinant VEGFR2 added, detected with anti-VEGFR antibody
Procedure: as §1, §2

VEGFR1 (isolated recombinant receptor), sequence (P17948 27-756 limits assumed): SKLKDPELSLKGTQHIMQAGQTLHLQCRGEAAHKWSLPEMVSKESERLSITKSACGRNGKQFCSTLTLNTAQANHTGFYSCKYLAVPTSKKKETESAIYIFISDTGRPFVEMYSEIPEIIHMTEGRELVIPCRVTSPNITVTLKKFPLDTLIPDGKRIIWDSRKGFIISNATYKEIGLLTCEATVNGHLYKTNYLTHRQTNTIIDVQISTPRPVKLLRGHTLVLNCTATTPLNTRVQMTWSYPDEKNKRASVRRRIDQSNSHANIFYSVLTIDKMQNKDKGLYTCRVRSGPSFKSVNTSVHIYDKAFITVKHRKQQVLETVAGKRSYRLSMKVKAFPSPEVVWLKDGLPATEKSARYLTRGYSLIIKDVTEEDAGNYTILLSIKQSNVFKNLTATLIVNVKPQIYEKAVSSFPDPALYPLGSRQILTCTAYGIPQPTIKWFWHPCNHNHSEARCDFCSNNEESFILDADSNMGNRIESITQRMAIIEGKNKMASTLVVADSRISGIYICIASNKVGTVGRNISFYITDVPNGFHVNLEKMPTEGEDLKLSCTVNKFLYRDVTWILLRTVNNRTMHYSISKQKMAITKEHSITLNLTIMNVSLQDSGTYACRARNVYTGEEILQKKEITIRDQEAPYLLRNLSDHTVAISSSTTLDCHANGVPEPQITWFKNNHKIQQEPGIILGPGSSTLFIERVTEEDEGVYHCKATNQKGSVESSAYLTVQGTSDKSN
VEGFR2 (isolated recombinant receptor), sequence (P35968 20-764 limits assumed): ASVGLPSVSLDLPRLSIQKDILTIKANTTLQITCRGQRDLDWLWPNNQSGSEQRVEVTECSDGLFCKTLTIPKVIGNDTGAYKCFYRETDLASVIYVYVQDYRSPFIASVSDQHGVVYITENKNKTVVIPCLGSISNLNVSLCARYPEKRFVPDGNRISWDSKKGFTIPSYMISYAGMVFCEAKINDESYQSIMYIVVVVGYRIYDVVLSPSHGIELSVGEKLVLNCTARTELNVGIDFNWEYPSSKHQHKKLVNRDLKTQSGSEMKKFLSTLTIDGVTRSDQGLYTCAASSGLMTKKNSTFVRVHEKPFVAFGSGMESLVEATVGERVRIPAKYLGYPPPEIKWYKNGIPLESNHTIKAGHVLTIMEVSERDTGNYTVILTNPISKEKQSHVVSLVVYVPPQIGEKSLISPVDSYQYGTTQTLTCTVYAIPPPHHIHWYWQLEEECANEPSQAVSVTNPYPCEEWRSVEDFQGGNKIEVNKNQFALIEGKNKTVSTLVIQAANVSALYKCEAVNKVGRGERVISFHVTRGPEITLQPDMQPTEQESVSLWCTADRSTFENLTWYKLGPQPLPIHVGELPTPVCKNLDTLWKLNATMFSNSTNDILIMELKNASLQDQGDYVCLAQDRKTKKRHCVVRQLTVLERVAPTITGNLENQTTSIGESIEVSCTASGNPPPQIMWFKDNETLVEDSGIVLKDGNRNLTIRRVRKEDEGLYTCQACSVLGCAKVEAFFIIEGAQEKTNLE

B1: CD44HABD^R41AR78SY79S (non-HA-binding triple mutant of the human CD44 hyaluronic acid binding domain) (other)
chain: QIDLNMTCRFAGVFHVEKNGAYSISRTEAADLCKAFNSTLPTMAQMEKALSIGFETCSSGFIEGHVVIPRIHPNSICAANNTGVYILTSNTSQYDTYCFNASAPPEEDCTSV
notes: Made in E. coli, non-glycosylated; also called CD44-3MUT; 3MUT
- binding result [1]: no binding
- binding result [2]: no binding

— US20110009310A1 (CELECURE, published 2011)
